From patent publication EP4725963A1 (Jiangsu Hengrui Pharmaceuticals Co., Ltd., dated 2026) come the findings set out here.

Broadly, the EC50 is the concentration needed to bring the measured effect to its halfway point.

One assay has as its target T1, hNPR2 (human, UniProt P20594 23-458, limits assumed).
T1 construct: Commercial protein; construct not described; also called hNPR2 antigen
T1 sequence (looked up): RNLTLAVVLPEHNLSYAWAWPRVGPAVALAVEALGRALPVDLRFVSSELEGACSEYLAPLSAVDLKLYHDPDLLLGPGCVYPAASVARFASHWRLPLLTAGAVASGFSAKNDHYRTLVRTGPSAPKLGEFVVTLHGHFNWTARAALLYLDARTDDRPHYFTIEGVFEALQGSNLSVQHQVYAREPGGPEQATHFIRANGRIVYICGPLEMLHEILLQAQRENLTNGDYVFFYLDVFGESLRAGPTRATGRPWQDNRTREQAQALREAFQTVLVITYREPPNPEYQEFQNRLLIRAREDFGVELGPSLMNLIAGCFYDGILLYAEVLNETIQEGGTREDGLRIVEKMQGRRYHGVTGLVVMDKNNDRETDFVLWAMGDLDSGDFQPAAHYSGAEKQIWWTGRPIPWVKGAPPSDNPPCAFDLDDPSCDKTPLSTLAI
Nature of the assay: ELISA, plate coated with 4 µg/mL antigen.

In assay [1] the target is T2, human NPR1 full-length protein overexpressed on CHO-K1 cells (human, UniProt P16066 33-1061).
T2 sequence: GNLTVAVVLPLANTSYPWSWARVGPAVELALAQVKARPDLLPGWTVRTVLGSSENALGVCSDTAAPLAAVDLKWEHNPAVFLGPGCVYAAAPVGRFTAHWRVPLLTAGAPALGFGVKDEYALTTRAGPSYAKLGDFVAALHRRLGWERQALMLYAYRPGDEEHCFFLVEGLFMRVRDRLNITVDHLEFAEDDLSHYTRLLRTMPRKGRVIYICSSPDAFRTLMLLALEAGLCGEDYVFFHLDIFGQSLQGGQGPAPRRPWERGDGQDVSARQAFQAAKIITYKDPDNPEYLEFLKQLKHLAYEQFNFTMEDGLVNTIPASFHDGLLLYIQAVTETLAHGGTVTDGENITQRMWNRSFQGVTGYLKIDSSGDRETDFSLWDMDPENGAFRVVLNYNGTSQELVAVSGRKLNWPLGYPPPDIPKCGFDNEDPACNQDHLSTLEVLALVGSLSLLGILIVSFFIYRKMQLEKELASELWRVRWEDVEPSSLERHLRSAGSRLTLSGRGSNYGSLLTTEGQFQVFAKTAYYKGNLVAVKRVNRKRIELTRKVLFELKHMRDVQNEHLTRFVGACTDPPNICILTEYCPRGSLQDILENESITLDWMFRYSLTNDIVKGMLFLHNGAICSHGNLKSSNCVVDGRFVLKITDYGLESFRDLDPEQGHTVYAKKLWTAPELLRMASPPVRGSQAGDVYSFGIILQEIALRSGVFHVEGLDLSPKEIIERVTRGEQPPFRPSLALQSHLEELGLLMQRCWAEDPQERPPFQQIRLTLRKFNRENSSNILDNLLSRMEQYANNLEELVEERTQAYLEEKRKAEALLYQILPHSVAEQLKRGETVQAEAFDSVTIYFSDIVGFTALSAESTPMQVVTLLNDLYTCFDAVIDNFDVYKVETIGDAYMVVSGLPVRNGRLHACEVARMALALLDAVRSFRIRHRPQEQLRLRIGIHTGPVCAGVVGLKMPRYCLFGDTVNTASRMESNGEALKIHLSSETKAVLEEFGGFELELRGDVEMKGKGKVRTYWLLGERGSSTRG
Nature of the assay: cell-based or functional assay.

The target in assay [2] is T2, human NPR1 full-length protein …. Nature of the assay: cell-based or functional assay. The source holds these as a separate data set.
The target of assay [3] is T3, fusion protein of the human NPR1 protein extracellular domain and human-IgG1-Fc (human).
T3 construct: also called hNPR1-hFc; hNPR1
Nature of the assay: ELISA, plate coated with 4 µg/mL hNPR1 antigen.

T3 sequence (chain, as listed by the source limits assumed): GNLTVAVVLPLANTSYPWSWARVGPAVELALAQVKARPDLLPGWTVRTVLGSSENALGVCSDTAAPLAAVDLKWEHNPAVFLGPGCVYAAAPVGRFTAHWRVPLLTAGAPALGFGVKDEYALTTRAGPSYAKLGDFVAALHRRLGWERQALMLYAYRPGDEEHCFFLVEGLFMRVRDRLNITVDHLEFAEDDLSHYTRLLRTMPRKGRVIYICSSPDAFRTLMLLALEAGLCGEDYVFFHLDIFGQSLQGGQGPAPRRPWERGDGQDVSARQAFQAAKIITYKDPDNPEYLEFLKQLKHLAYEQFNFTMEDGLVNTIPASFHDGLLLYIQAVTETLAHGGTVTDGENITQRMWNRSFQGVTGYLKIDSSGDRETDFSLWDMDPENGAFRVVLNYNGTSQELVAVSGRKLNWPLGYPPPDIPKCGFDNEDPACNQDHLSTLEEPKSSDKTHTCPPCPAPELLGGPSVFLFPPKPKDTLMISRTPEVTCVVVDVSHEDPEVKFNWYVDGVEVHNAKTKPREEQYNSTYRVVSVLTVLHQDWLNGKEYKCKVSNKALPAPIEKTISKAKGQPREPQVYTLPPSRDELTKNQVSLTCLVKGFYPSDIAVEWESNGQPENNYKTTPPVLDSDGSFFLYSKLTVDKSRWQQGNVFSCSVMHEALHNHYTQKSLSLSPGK

B1: Hu128H3L1-6 (antibody, human IgG1, kappa, L234A L235A, V domains shown)
VH: EVQLVQSGAEVKKPGASVKVSCKASGYTFTSYWMHWVRQAPGQGLEWMGRIDPNSGVTKYNEKFKSRVTLTVDKPSSPAYMELSSLRSEDTAVYYCARSSYLGRYFDVWGQGTTVTVSS
VL: EIVLTQSPATLSLSPGERATLKCSATSSVSYMYWYQQKPGQAPRLLIYDTYNLGSRIPARFSGSGSGTDYTLTISRLEPEDFAVYYCQQWSSYPPTFGQGTKLEIKR
notes: Humanized, human IgG1 LALA/kappa
As to B1, the binding result with hNPR2 is given as “no binding (tested: 20 µg/mL (highest concentration))”. Also, in assay [1], the “cGMP production: EC50” value was determined as 7.9 nM. In assay [2], the “Ratio (without ANP) of NPR1 antigens remaining on the cell surface after endocytosis to the initial number, 10 min, 20 µg/mL” value was found to be 1.3 ratio; the “Ratio (without ANP) of NPR1 antigens remaining on the cell surface after endocytosis to the initial number, 1 h, 20 µg/mL” value stood at 0.91 ratio; the “Ratio (without ANP) of NPR1 antigens remaining on the cell surface after endocytosis to the initial number, 7 hrs, 20 µg/mL” value was 0.96 ratio; the “Ratio (without ANP) of NPR1 antigens remaining on the cell surface after endocytosis to the initial number, 24 hrs, 20 µg/mL” value came out at 0.82 ratio. Also, the EC50 in assay [3] came to 1.84 nM.
